Reference: IntAct's records for PubMed 16004875

B1: Vesicle-associated membrane protein-associated protein SCS2 (Saccharomyces cerevisiae), P40075 (parent)
chain: MSAVEISPDVLVYKSPLTEQSTEYASISNNSDQTIAFKVKTTAPKFYCVRPNAAVVAPGETIQVQVIFLGLTEEPAADFKCRDKFLVITLPSPYDLNGKAVADVWSDLEAEFKQQAISKKIKVKYLISPDVHPAQNQNIQENKETVEPVVQDSEPKEVPAVVNEKEVPAEPETQPPVQVKKEEVPPVVQKTVPHENEKQTSNSTPAPQNQIKEAATVPAENESSSMGIFILVALLILVLGWFYR
partner: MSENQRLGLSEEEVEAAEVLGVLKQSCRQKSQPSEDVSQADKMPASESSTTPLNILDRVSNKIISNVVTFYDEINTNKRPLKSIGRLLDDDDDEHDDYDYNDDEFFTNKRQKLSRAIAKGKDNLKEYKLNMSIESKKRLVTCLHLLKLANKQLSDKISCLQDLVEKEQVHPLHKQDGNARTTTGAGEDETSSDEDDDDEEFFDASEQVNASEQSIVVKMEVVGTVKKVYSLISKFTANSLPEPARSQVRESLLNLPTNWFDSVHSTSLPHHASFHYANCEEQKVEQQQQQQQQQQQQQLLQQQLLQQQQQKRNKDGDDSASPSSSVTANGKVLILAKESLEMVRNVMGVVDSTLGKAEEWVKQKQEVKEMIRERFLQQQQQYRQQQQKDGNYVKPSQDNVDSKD
B2: Vesicle-associated membrane protein-associated protein A (Rattus norvegicus (Rat)), Q9Z270 (parent)
chain: MASASGAMAKHEQILVLDPPSDLKFKGPFTDVVTTNLKLQNPSDRKVCFKVKTTAPRRYCVRPNSGVIDPGSIVTVSVMLQPFDYDPNEKSKHKFMVQTIFAPPNISDMEAVWKEAKPDELMDSKLRCVFEMPNENDKLNDMEPSKAVPLNASKQDGPLPKPHSVSLNDTETRKLMEECKRLQGEMMKLSEENRHLRDEGLRLRKVAHSDKPGSTSAVSFRDNVTSPLPSLLVVIAAIFIGFFLGKFIL
partner: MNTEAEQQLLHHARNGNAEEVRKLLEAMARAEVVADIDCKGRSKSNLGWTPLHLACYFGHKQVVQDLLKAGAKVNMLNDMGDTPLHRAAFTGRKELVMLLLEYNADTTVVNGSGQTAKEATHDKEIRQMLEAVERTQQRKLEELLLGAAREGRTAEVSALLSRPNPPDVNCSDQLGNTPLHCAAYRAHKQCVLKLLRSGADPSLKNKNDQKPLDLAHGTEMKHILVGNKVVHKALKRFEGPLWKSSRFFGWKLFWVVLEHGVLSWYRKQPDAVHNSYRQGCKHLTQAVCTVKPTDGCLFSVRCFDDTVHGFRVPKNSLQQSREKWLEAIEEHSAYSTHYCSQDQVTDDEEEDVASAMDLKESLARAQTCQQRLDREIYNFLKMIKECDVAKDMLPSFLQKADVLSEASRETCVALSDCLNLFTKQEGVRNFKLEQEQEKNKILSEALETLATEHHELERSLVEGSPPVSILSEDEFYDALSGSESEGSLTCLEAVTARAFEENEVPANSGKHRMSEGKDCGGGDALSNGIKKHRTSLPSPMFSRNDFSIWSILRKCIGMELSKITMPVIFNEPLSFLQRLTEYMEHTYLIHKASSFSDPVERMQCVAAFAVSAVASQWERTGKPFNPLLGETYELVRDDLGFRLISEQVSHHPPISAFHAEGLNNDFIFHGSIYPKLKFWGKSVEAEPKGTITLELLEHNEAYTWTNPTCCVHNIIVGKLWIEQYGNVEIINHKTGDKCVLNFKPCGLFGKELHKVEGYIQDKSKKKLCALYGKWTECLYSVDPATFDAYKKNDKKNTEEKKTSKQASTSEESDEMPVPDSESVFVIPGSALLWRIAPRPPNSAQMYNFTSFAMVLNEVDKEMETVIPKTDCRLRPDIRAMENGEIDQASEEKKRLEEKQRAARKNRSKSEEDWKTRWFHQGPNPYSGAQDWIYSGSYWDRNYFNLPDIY

Variants of: B1
Settings: with opi1_yeast OPI1, P21957

With MSAVEISPDVLVYKSPLTEQSTEYASISNNSDQTIAFKVKTTAPKFYCVRPNAAVVAPGETIQVQVIFLGLTEEPAADFKCRDDFDVITLPSPYDLNGKAVADVWSDLEAEFKQQAISKKIKVKYLISPDVHPAQNQNIQENKETVEPVVQDSEPKEVPAVVNEKEVPAEPETQPPVQVKKEEVPPVVQKTVPHENEKQTSNSTPAPQNQIKEAATVPAENESSSMGIFILVALLILVLGWFYR [K84D;L86D] as the variant, how does the “effect of a mutation on the interaction” value read?
The value was “disrupting interaction”.

Variants of: B2
Settings: with osbl1_rat Osbpl1a

How did the “effect of a mutation on the interaction” value turn out when MASASGAMAKHEQILVLDPPSDLKFKGPFTDVVTTNLKLQNPSDRKVCFKVKTTAPRRYCVRPNSGVIDPGSIVTVSVMLQPFDYDPNEKSKHDFDVQTIFAPPNISDMEAVWKEAKPDELMDSKLRCVFEMPNENDKLNDMEPSKAVPLNASKQDGPLPKPHSVSLNDTETRKLMEECKRLQGEMMKLSEENRHLRDEGLRLRKVAHSDKPGSTSAVSFRDNVTSPLPSLLVVIAAIFIGFFLGKFIL [K94D;M96D] was run?
Its value is “disrupting interaction”.
